Results published in patent publication US20150361176A1 (GlaxoSmithKline, published 2015).

B1: DOM23h-271 mutant 1A2 (R at 61, A at 64) (VHH, name in Kabat numbering)
VHH: EVQLLESGGGLVQPGGSLRLSCAASGFTFTEYRMWWVRQAPGKGLEWVSAIEPIGNRTYYARSVAGRFTISRDNSKNTLYLQMNSLRAEDTAVYYCAKQIPGRKWTANSRFDYWGQGTLVTVSS
notes: human VH dAb; expressed from pDOM13
B2: DOM23h-271 mutant 1B2 (V at 61, W at 64) (VHH, name in Kabat numbering)
VHH: EVQLLESGGGLVQPGGSLRLSCAASGFTFTEYRMWWVRQAPGKGLEWVSAIEPIGNRTYYAVSVWGRFTISRDNSKNTLYLQMNSLRAEDTAVYYCAKQIPGRKWTANSRFDYWGQGTLVTVSS
notes: human VH dAb; expressed from pDOM13; also called VW
B3: DOM23h-271 mutant 1B11 (R at 61, V at 64) (VHH, name in Kabat numbering)
VHH: EVQLLESGGGLVQPGGSLRLSCAASGFTFTEYRMWWVRQAPGKGLEWVSAIEPIGNRTYYARSVVGRFTISRDNSKNTLYLQMNSLRAEDTAVYYCAKQIPGRKWTANSRFDYWGQGTLVTVSS
notes: human VH dAb; expressed from pDOM13; also called RV
B4: DOM23h-271 mutant 1D5 (K at 61, F at 64) (VHH, name in Kabat numbering)
VHH: EVQLLESGGGLVQPGGSLRLSCAASGFTFTEYRMWWVRQAPGKGLEWVSAIEPIGNRTYYAKSVFGRFTISRDNSKNTLYLQMNSLRAEDTAVYYCAKQIPGRKWTANSRFDYWGQGTLVTVSS
notes: human VH dAb; expressed from pDOM13; also called KF
B5: DOM23h-271 mutant 1D9 (R at 61, D at 64) (VHH, name in Kabat numbering)
VHH: EVQLLESGGGLVQPGGSLRLSCAASGFTFTEYRMWWVRQAPGKGLEWVSAIEPIGNRTYYARSVDGRFTISRDNSKNTLYLQMNSLRAEDTAVYYCAKQIPGRKWTANSRFDYWGQGTLVTVSS
notes: human VH dAb; expressed from pDOM13; also called RD
B6: DOM23h-271 mutant 1E6 (R at 61, Y at 64) (VHH, name in Kabat numbering)
VHH: EVQLLESGGGLVQPGGSLRLSCAASGFTFTEYRMWWVRQAPGKGLEWVSAIEPIGNRTYYARSVYGRFTISRDNSKNTLYLQMNSLRAEDTAVYYCAKQIPGRKWTANSRFDYWGQGTLVTVSS
notes: human VH dAb; expressed from pDOM13; also called RY
B7: DOM23h-271 mutant 1G11 (R at 61, M at 64) (VHH, name in Kabat numbering)
VHH: EVQLLESGGGLVQPGGSLRLSCAASGFTFTEYRMWWVRQAPGKGLEWVSAIEPIGNRTYYARSVMGRFTISRDNSKNTLYLQMNSLRAEDTAVYYCAKQIPGRKWTANSRFDYWGQGTLVTVSS
notes: human VH dAb; expressed from pDOM13; also called RM
B8: DOM23h-271-123 (VHH)
VHH: EVQLLESGGGLVQPGGSLRLSCAASGSTFTEYRMWWVRQAPGKGLEWVSAIEPIGHRTYYADSVKGRFTISRDNSKNTLYLQMNSLRAEDTAVYYCAKQAPGEKWARRWDLDYWGQGTLVTVSS
notes: expressed from pC10
B9: DOM23h-271-129 (VHH)
VHH: EVQLLESGGGLVQPGGSLRLSCAASGSTFTEYRMWWVRQAPGKGLEWVSAIEPIGHRTYYADSVKGRFTISRDNSKNTLYLQMNSLRAEDTAVYYCAKQAPNQRYVARGRLDYWGQGTLVTVSS
notes: expressed from pC10
B10: DOM23h-271-130 (DOM23h-271-123 + C-terminal Alanine) (VHH)
VHH: EVQLLESGGGLVQPGGSLRLSCAASGSTFTEYRMWWVRQAPGKGLEWVSAIEPIGHRTYYADSVKGRFTISRDNSKNTLYLQMNSLRAEDTAVYYCAKQAPGEKWARRWDLDYWGQGTLVTVSS
notes: human VH dAb
B11: DOM23h-271-131 (DOM23h-271-123 + C-terminal Alanine + 61N) (VHH)
VHH: EVQLLESGGGLVQPGGSLRLSCAASGSTFTEYRMWWVRQAPGKGLEWVSAIEPIGHRTYYANSVKGRFTISRDNSKNTLYLQMNSLRAEDTAVYYCAKQAPGEKWARRWDLDYWGQGTLVTVSS
notes: human VH dAb
B12: DOM23h-271-132 (DOM23h-271-123 + C-terminal Alanine + 64R) (VHH)
VHH: EVQLLESGGGLVQPGGSLRLSCAASGSTFTEYRMWWVRQAPGKGLEWVSAIEPIGHRTYYADSVRGRFTISRDNSKNTLYLQMNSLRAEDTAVYYCAKQAPGEKWARRWDLDYWGQGTLVTVSS
notes: human VH dAb
B13: DOM23h-271-133 (DOM23h-271-123 + C-terminal Alanine + 61N64R) (VHH)
VHH: EVQLLESGGGLVQPGGSLRLSCAASGSTFTEYRMWWVRQAPGKGLEWVSAIEPIGHRTYYANSVRGRFTISRDNSKNTLYLQMNSLRAEDTAVYYCAKQAPGEKWARRWDLDYWGQGTLVTVSS
notes: human VH dAb
B14: DOM23h-439-40 (DOM23h-439-25 + C-terminal Alanine) (VHH)
VHH: EVQLLESGGGLVQPGGSLRLSCAASGFTFGTEQMWWVRQAPGKGLEFVSRIDSPGGRTYYADSVKGRFTISRDNSKNTLYLQMNSLRAEDTAVYYCAKRRPTGVSGTFYDYWGQGTLVTVSS
notes: human VH dAb
B15: DOM23h-439-41 (DOM23h-439-25 + C-terminal Alanine + 48I) (VHH)
VHH: EVQLLESGGGLVQPGGSLRLSCAASGFTFGTEQMWWVRQAPGKGLEFISRIDSPGGRTYYADSVKGRFTISRDNSKNTLYLQMNSLRAEDTAVYYCAKRRPTGVSGTFYDYWGQGTLVTVSS
notes: human VH dAb
B16: DOM23h-439-42 (DOM23h-439-25 + C-terminal Alanine + 61N) (VHH)
VHH: EVQLLESGGGLVQPGGSLRLSCAASGFTFGTEQMWWVRQAPGKGLEFVSRIDSPGGRTYYANSVKGRFTISRDNSKNTLYLQMNSLRAEDTAVYYCAKRRPTGVSGTFYDYWGQGTLVTVSS
notes: human VH dAb
B17: DOM23h-439-43 (DOM23h-439-25 + C-terminal Alanine + 64R) (VHH)
VHH: EVQLLESGGGLVQPGGSLRLSCAASGFTFGTEQMWWVRQAPGKGLEFVSRIDSPGGRTYYADSVRGRFTISRDNSKNTLYLQMNSLRAEDTAVYYCAKRRPTGVSGTFYDYWGQGTLVTVSS
notes: human VH dAb
B18: DOM23h-439-44 (DOM23h-439-25 + C-terminal Alanine + 61N64R) (VHH)
VHH: EVQLLESGGGLVQPGGSLRLSCAASGFTFGTEQMWWVRQAPGKGLEFVSRIDSPGGRTYYANSVRGRFTISRDNSKNTLYLQMNSLRAEDTAVYYCAKRRPTGVSGTFYDYWGQGTLVTVSS
notes: human VH dAb

Tests used:
[1] = target: T1, recombinant human TGF-β RII/Fc chimera protein (human, UniProt P37173 24-159); assay: SPR Biacore A100, antigen-Fc captured by anti-human IgG, purified dAb, 1:1 model
T1 construct: range 24-159; Made in HEK-F cells; Biotinylated where it was put on SA chips, otherwise captured by anti-human IgG; also called human TGFbRII/Fc; hRII-Fc; not shown: Fc region of human IgG1
T1 sequence (P37173 24-159 limits assumed, stated change not applied): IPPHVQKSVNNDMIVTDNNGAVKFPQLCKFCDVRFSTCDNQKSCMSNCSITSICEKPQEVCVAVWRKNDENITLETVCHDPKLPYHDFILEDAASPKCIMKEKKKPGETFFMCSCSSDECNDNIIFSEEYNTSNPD
Description: BIACORE™ A100 analysis was carried out using a capture surface on a CM5 chip. Anti-human IgG was used as the capturing agent and coupled to a CM5 biosensor chip by primary amine coupling. The Antigen molecule fused to the human Fc was captured on this immobilised surface to a level from 200 to 300 resonance units and supernatants or purified domain antibodies were passed over this captured surface. An injection of media or buffer over the captured antigen surface was used for double referencing. On each flow cell, a protein A spot allowed to confirm the presence of domain antibody on each sample injected. […] All runs were carried out at 25° C. using HBS-EP buffer as running buffer. Data were generated using the BIACORE™ A100 and analyzed using its inherent software. Kinetics from purified samples were fitted to the 1:1 binding model while supernatant off-rates were analyzed using the 1:1 dissociation model and/or using the binding level and the stability level of each sample in comparison to the parent molecule.
A selection of mutants with improved off-rate were purified and subjected to full BIACORE™ A100 kinetic analysis to determine their affinity (Table 10). The thermal stability of the mutants was also determined by generation of melting profiles in the presence of SYPRO™ Orange (Invitrogen). Briefly, the purified dAbs were diluted to 50 and 100 ug/ml in a 1:500 dilution of SYPRO™ Orange in PBS, and subjected to a 30-90° C. melt curve in a Mini OPTICON™ PCR machine (BioRad). The Tm of the major positive transition was determined at each concentration and used to calculate an estimated Tm value at 1 mg/ml as an indication of the melting temperature for comparison (Table 10).

[2] = target: human TGF-βRII on cells (SBE-bla HEK 293T cells; A549 cells) (human, UniProt P37173 23-567); assay: cell-based or functional assay
Sequence of human TGF-βRII on cells (SBE-bla HEK 293T cells; A549 cells) (P37173 23-567): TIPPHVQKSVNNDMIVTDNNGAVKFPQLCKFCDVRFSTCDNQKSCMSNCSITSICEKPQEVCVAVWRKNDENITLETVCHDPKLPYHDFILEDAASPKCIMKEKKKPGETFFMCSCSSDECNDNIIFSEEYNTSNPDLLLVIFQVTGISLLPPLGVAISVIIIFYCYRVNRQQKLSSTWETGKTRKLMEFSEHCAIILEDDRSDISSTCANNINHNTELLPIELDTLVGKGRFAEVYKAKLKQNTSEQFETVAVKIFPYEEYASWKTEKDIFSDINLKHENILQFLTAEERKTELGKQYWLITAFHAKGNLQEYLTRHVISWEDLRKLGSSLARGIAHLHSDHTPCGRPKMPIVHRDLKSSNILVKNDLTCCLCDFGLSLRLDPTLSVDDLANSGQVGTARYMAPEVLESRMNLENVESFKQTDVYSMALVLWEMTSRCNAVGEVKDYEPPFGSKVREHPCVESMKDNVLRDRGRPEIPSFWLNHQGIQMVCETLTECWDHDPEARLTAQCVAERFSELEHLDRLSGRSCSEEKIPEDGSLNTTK

[3] = target: T1, recombinant human TGF-β RII/Fc chimera …; assay: SPR Biacore T200, receptor-Fc captured by anti-human IgG, dAb as analyte, 1:1 model
Description: (§1) Anti-human IgG was immobilised on a Biacore CM4 chip by primary amine coupling according to the manufacturer's instructions. Human TGF-β RII/Fc, cynomolgus TGF-β RII/Fc or human Fc fragment were captured on this surface. Domain antibodies were passed over the two captured receptors at 3 concentrations of 100, 10 and 1 nM (DOM23h-439 dAbs) or 100, 25 and 6.25 nM (DOM23h-271 dAbs). Only the 100 nM concentration of each dab was passed over human Fc fragment to confirm specificity of binding to the extracellular TGF-β RII domain. An injection of buffer over the captured antigen surface was used for double referencing. […] All runs were carried out at 25° C. using HBS-EP buffer as running buffer. Data were generated using the BIACORE™ T200 and fitted to the 1:1 binding model inherent to the software. […] The DOM23h-271 dAbs and the DOM23h-439 lineages were run in separate experiments.

cynomolgus TGF-β RII/Fc = target: T2, cynomolgus TGF-β RII/Fc (cynomolgus); assay: as above
T2 construct: extracellular domain; also called Cyno TGFBRII; Cyno TGFbRII
Description: as §1

Binder	Kd [1]	IC50 nM, Mean (SBE-bla HEK 293T cell sensor assay) [2]	Kd [3]	koff [3]	kon [3]	Kd (cynomolgus TGF-β RII/Fc)	koff (cynomolgus TGF-β RII/Fc)	kon (cynomolgus TGF-β RII/Fc)
B1	2.24 nM							
B2	1.79 nM							
B3	1.88 nM							
B4	3.69 nM							
B5	1.17 nM							
B6	1.17 nM							
B7	0.97 nM							
B8		18.3 nM	0.102 nM	0.000293 s⁻¹	2.89e+06 M⁻¹ s⁻¹	0.104 nM	0.00032 s⁻¹	3.08e+06 M⁻¹ s⁻¹
B9		22.7 nM	0.0741 nM	0.000411 s⁻¹	5.55e+06 M⁻¹ s⁻¹	0.0712 nM	0.000427 s⁻¹	6e+06 M⁻¹ s⁻¹
B10		37 nM	0.123 nM	0.000309 s⁻¹	2.51e+06 M⁻¹ s⁻¹	0.124 nM	0.000324 s⁻¹	2.61e+06 M⁻¹ s⁻¹
B11		6.3 nM	0.0217 nM	0.000136 s⁻¹	6.26e+06 M⁻¹ s⁻¹	0.0212 nM	0.000144 s⁻¹	6.81e+06 M⁻¹ s⁻¹
B12		21 nM	0.0182 nM	0.000222 s⁻¹	1.22e+07 M⁻¹ s⁻¹	0.0185 nM	0.000238 s⁻¹	1.29e+07 M⁻¹ s⁻¹
B13		2.4 nM	0.00909 nM	7.7e-05 s⁻¹	8.47e+06 M⁻¹ s⁻¹	0.00985 nM	8.71e-05 s⁻¹	8.84e+06 M⁻¹ s⁻¹
B14		14 nM	0.104 nM	0.00139 s⁻¹	1.34e+07 M⁻¹ s⁻¹	0.366 nM	0.00342 s⁻¹	9.34e+06 M⁻¹ s⁻¹
B15		1.7 nM	0.0104 nM	0.000187 s⁻¹	1.81e+07 M⁻¹ s⁻¹	0.0333 nM	0.000522 s⁻¹	1.57e+07 M⁻¹ s⁻¹
B16		0.7 nM	0.0032 nM	0.000131 s⁻¹	4.09e+07 M⁻¹ s⁻¹	0.011 nM	0.00041 s⁻¹	3.72e+07 M⁻¹ s⁻¹
B17		1 nM	0.0423 nM	0.000373 s⁻¹	8.83e+06 M⁻¹ s⁻¹	0.149 nM	0.0012 s⁻¹	8.04e+06 M⁻¹ s⁻¹
B18		1.3 nM	0.00289 nM	6.91e-05 s⁻¹	2.39e+07 M⁻¹ s⁻¹	0.00677 nM	0.000147 s⁻¹	2.17e+07 M⁻¹ s⁻¹
